# Data from PMC9195068, “The action of Con-ikot-ikot toxin on single AMPA-type glutamate receptors” (The Journal of General Physiology, 2022).
# Target: the molecule itself
# Assay: non-reducing SDS-PAGE
protein,measurement,value
"Con-ikot-ikot toxin (natural protein, also called CII; CII toxin) SGPADCCRMKECCTDRVNECLQRYSGREDKFVSFCYQEATVTCGSFNEIVGCCYGYQMCMIRVVKPNSLSGAHEACKTVSCGNPCA",stoichiometry N,2
